The values below come from patent CN107022030A (GUANGDONG GUYING BIOTECHNOLOGY INDUSTRIAL RES INSTITUTE CO …, dated 2017).

For test [1], the target named is T1, 人血清白蛋白(human serum albumin，HSA) (human, UniProt P02768 25-609).
T1 construct: Used at 40 mg/ml as the cross-reaction antigen; also called HAS
Description: indirect ELISA, HSA as cross-reaction antigen.

The target in test [2] is 人甲胎蛋白(human alpha fetoprotein，hAFP) (human) (UniProt P02771). Kind of test: ELISA titre of ascites antibody on hAFP. Background: An ELISA detects its analyte on a solid surface through an enzyme-linked reagent.
Sequence of UniProt P02771 (P02771 19-609): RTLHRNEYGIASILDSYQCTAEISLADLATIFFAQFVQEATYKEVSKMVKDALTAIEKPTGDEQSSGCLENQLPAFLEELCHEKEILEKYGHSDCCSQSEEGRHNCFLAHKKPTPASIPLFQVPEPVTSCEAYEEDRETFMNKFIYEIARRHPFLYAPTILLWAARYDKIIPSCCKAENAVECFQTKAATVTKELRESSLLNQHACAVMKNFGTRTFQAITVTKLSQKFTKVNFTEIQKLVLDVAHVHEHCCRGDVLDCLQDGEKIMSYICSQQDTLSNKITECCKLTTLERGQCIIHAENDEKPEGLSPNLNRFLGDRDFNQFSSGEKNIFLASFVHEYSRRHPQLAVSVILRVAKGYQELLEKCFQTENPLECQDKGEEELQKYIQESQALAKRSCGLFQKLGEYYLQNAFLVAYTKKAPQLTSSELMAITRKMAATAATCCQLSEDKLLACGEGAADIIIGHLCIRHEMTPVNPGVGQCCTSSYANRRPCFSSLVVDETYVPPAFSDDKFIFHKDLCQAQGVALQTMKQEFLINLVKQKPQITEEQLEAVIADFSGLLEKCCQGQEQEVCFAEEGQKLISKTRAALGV

T1 sequence (P02768 25-609): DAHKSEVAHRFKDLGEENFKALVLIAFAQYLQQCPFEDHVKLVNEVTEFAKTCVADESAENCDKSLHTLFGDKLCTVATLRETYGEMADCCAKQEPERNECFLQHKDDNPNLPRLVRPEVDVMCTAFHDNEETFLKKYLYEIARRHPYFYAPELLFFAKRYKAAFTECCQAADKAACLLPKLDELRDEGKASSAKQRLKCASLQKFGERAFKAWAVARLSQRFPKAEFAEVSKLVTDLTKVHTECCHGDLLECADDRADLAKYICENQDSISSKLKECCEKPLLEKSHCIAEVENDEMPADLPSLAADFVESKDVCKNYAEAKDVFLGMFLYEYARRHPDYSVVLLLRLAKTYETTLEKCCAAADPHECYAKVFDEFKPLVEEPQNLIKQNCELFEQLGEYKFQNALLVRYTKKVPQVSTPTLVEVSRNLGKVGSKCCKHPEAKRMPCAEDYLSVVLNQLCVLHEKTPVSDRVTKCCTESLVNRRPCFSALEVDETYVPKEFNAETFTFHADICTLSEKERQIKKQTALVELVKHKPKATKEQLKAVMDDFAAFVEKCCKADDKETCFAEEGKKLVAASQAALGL

B1: 单克隆抗体Ab3 (antibody, V domains shown)
VH: VKLQESGAELVKPGASVKLSCTASGFNIKDTYMHWVKQRPEQGLEWIGGIDPANGKTKFDPKFQGKATITADTSSNTAYLHLSRLTSDDTAVYYCVRGQVGGRGWFAYWGQGTTVTVSS
VL: DIQLTQSPSSLSASLGERVSLTCRASQEISGYLSWLQRKPDGTIKRLIYAASTLDSGVPKRFSGSRSGSDYSLTISSLESEDFADYYCLQYASYPYTFGGGTKL
notes: Mouse monoclonal IgG from hybridoma ascites, Protein G purified; HRP-labelled in the immunohistochemistry; also called Ab3-HRP
Consider B1, for which the binding result in test [1] is reported as “no binding (tested: 40mg/ml)”.

B2: 单克隆抗体Ab4 (antibody, part only; not given: light chain variable region, constant regions, V domains shown, part only)
VH: VKLQQSGPELVKPGASVTLSCKASGYTFTSYYIHWVKQRPGQELEWIGWIYPGNVNTKYNEKFKGKATLTADKSSSTAYMQLSSLTSEDSAVYFCARCSGRLYYAMDYWGQGTTVTVSS
B2: in test [2], the 腹水效价 was under 3e+07.
